# Assay results published in patent US20250163146A1, “SINGLE-DOMAIN ANTIBODIES (NANOBODIES) TARGETING THE NOTCH LIGAND DLL4 AND METHODS OF THEIR USE” (H. LEE MOFFITT CANCER CENTER AND RESEARCH INSTITUTE, INC., priority 2022, published 2025).
# How the values were obtained:
# hNotch1 = assay: Inhibition in plate-bound and co-culture formats with CHO-hNotch1 reporter cell line; format: cell-based, human; conditions: preliminary
# Description: (§1) 168. We the investigated the C4 nanobody following affinity maturation and found a second nanobody Nb.d4C4v2. To identify the similarity between the parent C4 and the variant C4v2 clone the sequences of each nanobody was compared (FIG. 7). We also investigated the affinity of the C4 nanobody. […] Moreover, inhibition in plate-bound and co-culture formats in the presence of CHO-hNotch1 reporter cell line and with or without cells expressing DLL4 indicate a low-nanomolar IC50 similar to DAPT, indicating affinity-matured Nb.d4C4v2 is a clinical candidate (FIGS. 9 and 10).
# hDLL4: hNotch1 complexes = hDLL4: hNotch1 complexes (Homo sapiens, UniProt Q9NR61); assay: Yeast expressing nanobody stained with unlabeled hDLL4 + biotinylated hNotch1 (6-13), flow cytometry (inhibition of hNotch1 binding to hDLL4); conditions: FIG. 3
# Sequence of hDLL4: hNotch1 complexes (Q9NR61 27-322 limits assumed, one chain of several): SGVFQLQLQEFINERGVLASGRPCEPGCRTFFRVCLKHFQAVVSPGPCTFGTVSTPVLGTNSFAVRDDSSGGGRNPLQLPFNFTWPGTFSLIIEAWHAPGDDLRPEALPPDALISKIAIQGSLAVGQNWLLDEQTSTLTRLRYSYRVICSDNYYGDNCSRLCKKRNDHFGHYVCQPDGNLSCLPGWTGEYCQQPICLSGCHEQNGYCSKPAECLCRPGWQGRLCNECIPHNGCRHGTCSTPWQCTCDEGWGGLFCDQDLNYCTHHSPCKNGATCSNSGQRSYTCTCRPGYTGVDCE
# Method: (§2) 164. Next, we tested four cross-reactive nanobodies (A7, C4, C5, and B1) for their ability to inhibit binding of hNotch1 to hDLL4 (FIG. 3). Yeast expressing each nanobody were stained with either biotinylated hDLL4 (N-3) or unlabled hDLL4+biotinylated hNotch1 EGF domains 6-13 (hNotch1 (6-13)). The yeast were then washed, incubated with SA-647, and analyzed by flow cytometry.
# [1] = test system: DLL4-mediated Notch activation (hNotch1); assay: Plate-bound ligand stimulation assay, Notch1 H2B-citrine reporter cells on recombinant human DLL4; format: cell-based; conditions: nanobody-Fc fusions, plates coated with human DLL4 (C2, DSL, EGF1-5), FIG. 6
# Description: 167. To determine if the C4 and C5 nanobodies inhibit DLL4-mediated Notch activation. Notch1 reporter H2B-citrine reporter cells were transferred to 96-well plates coated with recombinant human DLL4 protein containing the C2, DSL, and EGF1-5 domains in the presence or absence of nanobody-Fc fusions.
# DLL4 [2] = target: T1, DLL4 (Homo sapiens, UniProt Q9NR61); assay: SPR monomer affinity; format: binding; conditions: preliminary, FIG. 8
# Description: as §1
# Target sequence in this assay (Q9NR61 27-685, species assumed): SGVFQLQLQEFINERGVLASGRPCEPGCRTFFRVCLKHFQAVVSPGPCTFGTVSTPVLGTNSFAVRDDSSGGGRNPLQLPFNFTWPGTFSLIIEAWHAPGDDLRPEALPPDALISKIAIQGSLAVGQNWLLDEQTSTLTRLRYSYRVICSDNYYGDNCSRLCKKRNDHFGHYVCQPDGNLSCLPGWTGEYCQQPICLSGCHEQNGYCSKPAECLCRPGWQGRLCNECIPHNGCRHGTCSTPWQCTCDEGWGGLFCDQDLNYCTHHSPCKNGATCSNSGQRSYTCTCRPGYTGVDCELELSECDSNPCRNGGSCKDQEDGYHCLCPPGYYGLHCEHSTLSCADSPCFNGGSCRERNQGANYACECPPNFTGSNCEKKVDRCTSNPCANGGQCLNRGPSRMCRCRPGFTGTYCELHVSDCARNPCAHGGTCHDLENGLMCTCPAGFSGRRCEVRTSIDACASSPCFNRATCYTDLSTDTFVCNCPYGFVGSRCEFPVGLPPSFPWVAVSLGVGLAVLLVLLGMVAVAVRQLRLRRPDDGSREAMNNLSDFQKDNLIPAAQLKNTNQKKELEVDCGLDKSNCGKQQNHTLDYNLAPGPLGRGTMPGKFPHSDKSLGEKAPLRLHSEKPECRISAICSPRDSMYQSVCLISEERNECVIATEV
# DLL4 [3] = target: T1, DLL4; assay: Yeast expressing nanobody stained with biotinylated hDLL4 (N-3) alone, flow cytometry; format: binding; parameters: stained with biotinylated human DLL4 (N-EGF3); conditions: yeast display, FIG. 3
# Method: as §2
# Target sequence in this assay (Q9NR61 27-322 limits assumed): as the sequence (Q9NR61 27-322 limits assumed, one chain of several) above
# DLL4 [4] = target: T1, DLL4; assay: Cross-reactivity: yeast expressing each nanobody stained with biotinylated human DLL4 (N-EGF3), flow cytometry; format: binding; parameters: stained with biotinylated human DLL4 (N-EGF3); biotin (protein is biotinylated); conditions: yeast display, SA-647, FIG. 2
# Method: 163. The eight anti-DLL4 nanobody clones were then tested for cross-reactivity between human and mouse DLL4. Yeast cells expressing each nanobody were stained with biotinylated human DLL4 (N-EGF3), washed, stained with SA-647, and then analyzed by flow cytometry.
# Target sequence in this assay (Q9NR61 27-322 limits assumed): as the sequence (Q9NR61 27-322 limits assumed, one chain of several) above
# mouse DLL4 = target: T2, mouse DLL4 (Mus musculus, UniProt Q9JI71); assay: Yeast-displayed nanobody clones stained with biotinylated mDLL4 and SA-647, flow cytometry; format: binding; conditions: yeast display, biotinylated mDLL4 (N-EGF3), SA-647, FIG. 1
# T2 construct: The mDLL4 protein was a truncation that contained the C2, DSL, and EGF1-3 domains (DLL4 (N-EGF3)); biotin (protein is biotinylated)
# T2 sequence (Q9JI71 27-323 limits assumed): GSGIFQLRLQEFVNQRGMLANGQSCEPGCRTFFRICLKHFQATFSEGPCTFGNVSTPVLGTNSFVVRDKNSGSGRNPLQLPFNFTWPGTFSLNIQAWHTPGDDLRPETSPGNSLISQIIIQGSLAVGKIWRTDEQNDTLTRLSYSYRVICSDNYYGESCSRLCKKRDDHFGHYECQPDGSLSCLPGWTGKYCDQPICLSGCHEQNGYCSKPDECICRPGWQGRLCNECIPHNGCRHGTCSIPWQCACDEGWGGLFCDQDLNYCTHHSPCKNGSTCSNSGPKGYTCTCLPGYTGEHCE
# Method: 162. To isolate binding molecules that interrupted the interaction of DLL4 and Notch1, we performed several rounds of selection using decreasing concentrations of biotinylated murine DLL4 protein. The mDLL4 protein was a truncation that contained the C2, DSL, and EGF1-3 domains (DLL4 (N-EGF3)). To perform a selection, the library was stained with biotinylated mDLL4, washed, incubated with streptavidin-647, washed, and then binders isolated selected using either (a) magnetic beads coated with an anti-647 antibody or (b) FACS. The mDLL4-binding yeast were then plated so that individual colonies could be picked and cultured to isolate individual clones. The clones were then each stained with mDLL4 and SA-647 and analyzed by flow cytometry to confirm that they bound to mDLL4. (FIG. 1).
molecule,measurement,setting,value
"Nb.d4C4v2: affinity-matured variant of the C4 nanobody, SEQ ID NO: 39 (SEQ ID NO: 41 with flanking sequence) (protein) VHH: QVQLQESGGGLVQAGGSLRLSCAASGSISGDVEMGWYRQAPGKEREFVAGINDGGNIYYADNVEGRFTISRDNAKNTVYLQMNSLKPEDTAVYYCAVSTTYPSYNESQYADWIAYWGQGAQVTVSS",IC50,"hNotch1; CHO-hNotch1 reporter cell line and cells expressing DLL4, similar to DAPT, FIG. 10",low-nanomolar
same,IC50,"hNotch1; CHO-hNotch1 reporter cell line, without cells expressing DLL4, similar to DAPT, FIG. 9",low-nanomolar
"clone C4: anti-DLL4 nanobody isolated from the yeast library, SEQ ID NO: 32; nanobody d4C4 SEQ ID NO: 36 (protein) VHH: QVQLQESGGGLVQAGGSLRLSCAASGSISGDVEMGWYRQAPGKEREFVAGINDGGNTYYADSVKGRFTISRDNAKNTVYLQMNSLKPEDTAVYYCAVSTTYPSYNESQYADWLAYWGQGTQVTVSSGSYPYDVPDYAQTSSPSTEAS",binding to hDLL4: hNotch1 complexes,hDLL4: hNotch1 complexes,not to hDLL4: hNotch1 complexes
same,reduction in reporter activity (hNotch1 activation),[1],dose-dependent reduction in reporter activity
same,monomer affinity,DLL4 [2],low nanomolar to picomolar range
same,binding to hDLL4 alone,DLL4 [3],bound robustly
same,cross-reactivity with human DLL4,DLL4 [4],cross reacted with human DLL4
"clone B1: anti-DLL4 nanobody isolated from the yeast library, SEQ ID NO: 12 (protein) VHH: QVQLQESGGGLVQAGGSLRLSCAASGTIFYSSDMGWYRQAPGKEREFVAGINRGSTTYYADSVKGRFTISRDNAKNTVYLQMNSLKPEDTAVYYCAVVSDVLTRLFYWGQGTQVTVSSGSYPYDVPDYAQTSSPSTEAS",binding to mouse DLL4,mouse DLL4,bound mouse DLL4
same,cross-reactivity with human DLL4,DLL4 [4],cross reacted with human DLL4
"clone A8: anti-DLL4 nanobody isolated from the yeast library, SEQ ID NO: 4 (protein) VHH: QVQLQESGGGLVQAGGSLRLSCAASGTIFEERVMGWYRQAPGKEREFVAGIASGAITYYADSVKGRFTISRDNAKNTVYLQMNSLKPEDTAVYYCAAQGYSFKTKPDYSAYVLVYWGQGTQVTVSSGSYPYDVPDYAQTSSPSTEAS",binding to mouse DLL4,mouse DLL4,bound mouse DLL4
"clone C2: anti-DLL4 nanobody isolated from the yeast library, SEQ ID NO: 28 (protein) VHH: QVQLQESGGGLVQAGGSLRLSCAASGSISVVYGMGWYRQAPGKEREFVAGISYGGSTYYADSVKGRFTISRDNAKNTVYLQMNSLKPEDTAVYYCAVDASYWDTLVYWGQGTQVTVSSGSYPYDVPDYAQTSSPSTEAS",binding to mouse DLL4,mouse DLL4,bound mouse DLL4
"clone A9: anti-DLL4 nanobody isolated from the yeast library, SEQ ID NO: 8 (protein) VHH: QVQLQESGGGLVQAGGSLRLSCAASGTISQDSGMGWYRQAPGKEREFVAGITAGSITYYADSVKGRFTISRDNAKNTVYLQMNSLKPEDTAVYYCAASYVSVQAHTYWGQGTQVTVSSGSYPYDVPDYAQTSSPSTEAS",binding to mouse DLL4,mouse DLL4,bound mouse DLL4
"clone C5: anti-DLL4 nanobody isolated from the yeast library, SEQ ID NO: 20 (protein) VHH: QVQLQESGGGLVQAGGSLRLSCAASGNISTGTAMGWYRQAPGKEREFVAGIAYGATTYYADSVKGRFTISRDNAKNTVYLQMNSLKPEDTAVYYCAVEVSQSTPGGRYSVAYLIYWGQGTQVTVSSGSYPYDVPDYAQTSSPSTEAS",binding to mouse DLL4,mouse DLL4,bound mouse DLL4
same,binding to hDLL4: hNotch1 complexes,hDLL4: hNotch1 complexes,not to hDLL4: hNotch1 complexes
same,reduction in reporter activity (hNotch1 activation),[1],dose-dependent reduction in reporter activity
same,binding to hDLL4 alone,DLL4 [3],bound robustly
same,cross-reactivity with human DLL4,DLL4 [4],cross reacted with human DLL4
"clone A7: anti-DLL4 nanobody isolated from the yeast library, SEQ ID NO: 24 (protein) VHH: QVQLQESGGGLVQAGGSLRLSCAASGNIFYTYSMGWYRQAPGKEREFVAAISAGTITYYADSVKGRFTISRDNAKNTVYLQMNSLKPEDTAVYYCAVFAPRDVIHYYWGQGTQVTVSSGSYPYDVPDYAQTSSPSTEAS",binding to mouse DLL4,mouse DLL4,bound mouse DLL4
same,cross-reactivity with human DLL4,DLL4 [4],cross reacted with human DLL4
"clone B4: anti-DLL4 nanobody isolated from the yeast library, SEQ ID NO: 16 (protein) VHH: QVQLQESGGGLVQAGGSLRLSCAASGNISVWIPMGWYRQAPGKEREFVASIGEGSTTYYADSVKGRFTISRDNAKNTVYLQMNSLKPEDTAVYYCAVPYYGHSDYDYWGQGTQVTVSSGSYPYDVPDYAQTSSPSTEAS",binding to mouse DLL4,mouse DLL4,bound mouse DLL4
